T1: hIL-18 receptor (hIL-18Rα and hIL-18Rβ) (human, UniProt Q13478 19-541; O95256 20-599)
T1 sequence (looked up) 1: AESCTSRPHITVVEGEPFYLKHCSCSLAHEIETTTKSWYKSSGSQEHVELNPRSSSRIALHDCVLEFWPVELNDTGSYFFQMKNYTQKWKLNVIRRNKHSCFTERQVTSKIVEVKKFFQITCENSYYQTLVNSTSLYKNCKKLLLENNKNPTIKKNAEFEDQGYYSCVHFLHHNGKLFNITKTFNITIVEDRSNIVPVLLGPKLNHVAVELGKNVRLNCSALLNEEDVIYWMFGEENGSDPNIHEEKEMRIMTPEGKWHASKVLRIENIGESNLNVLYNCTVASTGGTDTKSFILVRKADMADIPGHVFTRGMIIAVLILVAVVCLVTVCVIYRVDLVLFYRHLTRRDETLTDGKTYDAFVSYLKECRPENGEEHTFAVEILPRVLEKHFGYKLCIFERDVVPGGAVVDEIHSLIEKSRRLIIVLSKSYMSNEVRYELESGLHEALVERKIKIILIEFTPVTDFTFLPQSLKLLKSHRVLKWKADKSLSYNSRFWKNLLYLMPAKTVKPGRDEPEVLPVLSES
T1 sequence (looked up) 2: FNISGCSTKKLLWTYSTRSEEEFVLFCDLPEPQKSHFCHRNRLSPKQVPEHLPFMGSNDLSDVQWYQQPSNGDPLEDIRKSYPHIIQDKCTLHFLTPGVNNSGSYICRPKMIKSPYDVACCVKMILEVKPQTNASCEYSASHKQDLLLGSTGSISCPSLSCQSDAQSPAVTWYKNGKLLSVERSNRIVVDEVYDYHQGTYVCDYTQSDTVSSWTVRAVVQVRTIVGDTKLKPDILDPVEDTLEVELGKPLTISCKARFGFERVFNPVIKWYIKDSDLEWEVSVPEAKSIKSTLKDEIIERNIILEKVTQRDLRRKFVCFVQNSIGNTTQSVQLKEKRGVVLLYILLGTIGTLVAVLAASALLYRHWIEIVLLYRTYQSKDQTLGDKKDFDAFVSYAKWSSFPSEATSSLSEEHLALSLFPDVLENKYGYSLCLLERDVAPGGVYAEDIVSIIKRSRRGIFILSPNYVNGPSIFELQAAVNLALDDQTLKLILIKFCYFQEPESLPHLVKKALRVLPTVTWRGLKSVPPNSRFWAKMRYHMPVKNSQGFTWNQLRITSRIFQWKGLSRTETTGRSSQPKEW

T2: hIL-18BP-hFc (human, UniProt O95998 31-194, limits assumed)
T2 sequence (looked up): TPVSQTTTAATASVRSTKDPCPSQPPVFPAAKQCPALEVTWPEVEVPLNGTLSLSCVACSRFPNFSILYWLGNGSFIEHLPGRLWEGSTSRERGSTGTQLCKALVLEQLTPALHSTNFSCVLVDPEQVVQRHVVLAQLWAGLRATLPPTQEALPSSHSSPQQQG


Key:
Experiment in all cases: cell-based or functional assay
[1] = molecular target: T1, hIL-18 receptor (hIL-18Rα and hIL-18Rβ)
hIL-18BP-hFc [2] = molecular target: T2, hIL-18BP-hFc
[3] = molecular target: T1, hIL-18 receptor (hIL-18Rα and hIL-18Rβ); remark: listed apart in the source
hIL-18BP-hFc [4] = molecular target: T2, hIL-18BP-hFc; remark: listed apart in the source

Row | Binder | EC50 (nM), hIL-18 reporter assay [1] | EC50 (nM) in the Presence of 1 µg/mL hIL-18BP-hFc, hIL-18 reporter assay (hIL-18BP-hFc [2]) | EC50 Fold Change (+BP/-BP), hIL-18 reporter assay (hIL-18BP-hFc [2]) | EC50 (nM), PBMC assay (hIFNγ release) [3] | EC50 (nM) in the Presence of 1 µg/mL hIL-18BP-hFc, PBMC assay (hIFNγ release) (hIL-18BP-hFc [4]) | EC50 Fold Change (+BP/-BP), PBMC assay (hIFNγ release) (hIL-18BP-hFc [4])
1 | IL-18 variant polypeptide M17 (ligand) YFPKLRSKLSVIRNLNDQVLFIDQGNRPLFEDMTDSDCRDNAPRTIFIISMYKLSTARGMAVTISVKCEKISTLSCENKIISFKEMNPPDGIKDTKSDIIFFQRSVPGHDNKMQFESSSYEGYFLACEKERDLFKLILKKEDELGDRSIMFTVQNED | 0.41 nM | 0.32 nM | 0.78 fold | 0.13 nM | 0.13 nM | 1 fold
2 | IL-18 variant polypeptide M21 (ligand) YFPKLRSKLSVIRNLNDQVLFIDQGNRPLFEDMTDSDCRDNAPRTIFIISMYKSSSTRGMAVTISVKCEKISTLSCENKIISFKEMNPPDGIKDTKSDIIFFQSSVPGHDNKMQFESSSYEGYFLACEKERDLFKLILKKEDELGDRSIMFTVQNED | 1.9 nM | 2.1 nM | 1.11 fold | 0.045 nM | 0.049 nM | 1.09 fold
3 | IL-18 variant polypeptide M24 (ligand) YFPKLRSKLSVIRNLNDQVLFIDQGNRPLFEDMTDSDCRDNAPRTIFIISMYKYSTSRGMAVTISVKCEKISTLSCENKIISFKEMNPPDNIKDTKSDIIFFQRSVPGHDNKMQFESSSYEGYFLACEKERDLFKLILKKEDELGDRSIMFTVQNED | 0.99 nM | 1.99 nM | 2.01 fold | 0.054 nM | 0.08 nM | 1.48 fold

Source: patent publication US20260092093A1 (TJ BIOPHARMA SHANGHAI, published 2026)
